Results on 19 molecules are retold here after patent US20250186614A1, “COMPACT DRUG RESPONSIVE DOMAINS FOR REGULATION OF FUNCTION/ABUNDANCE AND DELIVERY OF POLYPEPTIDE PAYLOADS” (OBSIDIAN THERAPEUTICS, INC., priority 2022, published 2025).

The test can be described thus: Example 4: dose response of FKBP constructs 160-255, Ec50, Ec90 and fold change (raw and normalized to mCherry). The test is classed as cell-based. The conditions noted are these: for FC (fold change): fold change during initial analysis. The method, then:
Additional experiments were performed for constructs FKBP-160-292.

The mark [1] stands for this setting: FKBP constructs 160-255, not normalized, read-out: EC90.
[2] abbreviates: normalized to mCherry, read-out: EC90 (Norm).

Read-outs that look alike come from different tables or passages of the source.

B1: FKBP-208 (protein)
chain: HCPIKSRKGDVLHAHYTGKLEDGTEFDSSLPRNQPFVFSLGTGERIKGWDQGLLGMCEGEKRKLVIPSELGYGERGWPPKIPGGATLVFRVELLKIER
modifications: Description of sequence: Construct Name: FKBP-208; Mutation(s): Q72R Q84E A117W V85R DRD M54A E130R
As to B1, the “FC (fold change)” value is given as 87.2. Under setting [1], the EC90 (as a rule, the concentration at which the effect reaches the 90% level) worked out at 4220 nM. In addition, the EC90 under setting [2] stood at 4120 nM.

B2: FKBP-209: FKBP13 DRD-AcGFP construct of Table 10 (protein)
chain: HCPIKSRKGDVLHAHYTGKLEDGTEFDSSLPRNQPFVFSLGTGERIKGWDQGLLGMCEGEWRKLVIPSELGYGERGWPPKIPGGATLVFEVELLKIER
modifications: Description of sequence: Construct Name: FKBP-209; Mutation(s): Q72R Q84E A117W V85R DRD M54A K101W
For B2, the “FC (fold change)” value is on record as 56.0. Besides, under setting [1], the EC90 was 682 nM. In addition, the concentration for an effect of 90% (EC90) under setting [2] stood at 777 nM.

B3: FKBP-221 (protein)
chain: HCPIKSRKGDVLHAHYTGKLEDGGEFDSSLPRNQPFVFSLGTGERIKGWDQGLLGMCEGEKRKLVIPSELGYGERGWPPKIPGGATLVFEVELLKIER
modifications: Description of sequence: Construct Name: FKBP-221; Mutation(s): Q72R Q84E A117W V85R DRD M54A T25G
For the molecule B3, the “FC (fold change)” value came to 41.8. Besides, the EC90 under setting [1] was 495 nM. Moreover, the EC90 under setting [2] was determined as 567 nM.

B4: FKBP-218 (protein)
chain: HCPIKSRKGDVLHAHYTGKLGDGTEFDSSLPRNQPFVFSLGTGEVIKGWDQGLLGMCEGEGRKLVIPSELGYGERGWPPKIPGGATLVFEVELLEIER
modifications: Description of sequence: Construct Name: FKBP-218; Mutation(s): Q72R Q84E A117W DRD M54A E61G K101G K135E
As for B4, the “FC (fold change)” value is 4.46.

B5: FKBP-213 (protein)
chain: HCRIKSRKGDVLHAHYTGKLEDGTEFDSSLPRNQPFVFSLGTGGVIKGWDQGLLGMCEGEKRKLVIPSELGYGERGWPPKIPGGATLVFEVELLKIER
modifications: Description of sequence: Construct Name: FKBP-213; Mutation(s): Q72R Q84G A117W DRD P43R M54A
With B5, the “FC (fold change)” value stood at 28.8. Further, under setting [1], the EC90 turned out to be 47.4 nM. Also, the EC90 under setting [2] turned out to be 47 nM.

B6: FKBP-225 (protein)
chain: HCRIKSRKGDVLHMHYTGKLEDGTEFDSSLPRNQPFVFSLGTGERIKGWDQGLLGMCEGEKRKLVIPSELGYGERGWPPKIPGGATLVFEVELLKIER
modifications: Description of sequence: Construct Name: FKBP-225; Mutation(s): Q72R Q84E A117W V85R DRD P43R
Consider B6, for which the “FC (fold change)” value was 20.6. The EC90 under setting [1] came out at 25.4 nM. Further, the EC90 under setting [2] turned out to be 26 nM.

B7: FKBP-222 (protein)
chain: HCWIKSRKGDVLHMHYTGKLEDGREFDSSLPRNQPFVFSLGTGEVIKGWDQGLLGMCEGEKRKLVIPSELGYGERGWPPKIPGGATLVFEVELLKIER
modifications: Description of sequence: Construct Name: FKBP-222; Mutation(s): Q72R Q84E A117W DRD P4W T25R
Regarding B7, the “FC (fold change)” value was 40.6. Moreover, the 90% effect concentration (EC90) under setting [1] worked out at 612 nM. Under setting [2], the EC90 amounted to 602 nM.

B8: FKBP-216 (protein)
chain: HCPIKSRKGDVLHAHYTGKLYDGTEFDSSLPRNQPFVFSLGTGEVIKGWDQGLLGMCEGEWRKLVIPSELGYGERGWPPKIPGGATLVFEVELLYIER
modifications: Description of sequence: Construct Name: FKBP-216; Mutation(s): Q72R Q84E A117W DRD M54A E61Y K101W K135Y
As for B8, the “FC (fold change)” value turned out to be 27.6. Under setting [1], the EC90 was determined as 14100 nM. Besides, the EC90 under setting [2] was determined as 14500 nM.

B9: FKBP-163 (protein)
chain: HCPIKSRKGDVLHAHYTGKLEDGTEFDSSLPRNQPFVFSLGTGERIKGWDQGLLGVCEGEKRKLVIPSELGYGERGWPPKIPGGATLVFEVELLKIER
modifications: Description of sequence: Construct Name: FKBP-163; Mutation(s): Q72R Q84E A117W DRD M54A M96V V85R
For B9, the “FC (fold change)” value stood at 29.4. For the same molecule, the EC90 under setting [1] is 756 nM. For the same molecule, under setting [2], the EC90 is 1010 nM.

B10: FKBP-211 (protein)
chain: HCPIKSRKGDVLHAHYTGKLESGTEFDSSLPRNQPFVFSLGTGERIKGWDQGLLGMCEGEKRKLVIPSELGYGERGWPPKIPGGATLVFEVELLKIER
modifications: Description of sequence: Construct Name: FKBP-211; Mutation(s): Q72R Q84E A117W V85R DRD M54A D62S
Turning to B10, the “FC (fold change)” value turned out to be 35.7. The EC90 under setting [1] is 452 nM. For the same molecule, the EC90 under setting [2] was 481 nM.

B11: FKBP-223: FKBP13 DRD-AcGFP construct of Table 10 (protein)
chain: HCWIKSRKGDVLHAHYTGKLEDGREFDSSLPRNQPFVFSLGTGERIKGWDQGLLGMCEGEKRKLVIPSELGYGERGWPPKIPGGATLVFEVELLKIER
modifications: Description of sequence: Construct Name: FKBP-223; Mutation(s): Q72R Q84E A117W V85R DRD M54A P4W T25R
As for B11, the “FC (fold change)” value amounted to 52.5. Also, the EC90 under setting [1] was 674 nM. The EC90 under setting [2] is 713 nM.

B12: FKBP-226: FKBP13 DRD-AcGFP construct of Table 10 (protein)
chain: HCRIKSRKGDVLHAHYTGKLEDGTEFDSSLPRNQPFVFSLGTGERIKGWDQGLLGMCEGEKRKLVIPSELGYGERGWPPKIPGGATLVFEVELLKIER
modifications: Description of sequence: Construct Name: FKBP-226; Mutation(s): Q72R Q84E A117W V85R DRD P43R M54A
As to B12, the “FC (fold change)” value is given as 31.5. In addition, the EC90 under setting [1] stood at 44.6 nM. Under setting [2], the EC90 was found to be 47 nM.

B13: FKBP-219 (protein)
chain: HCPIKSRKGDVLHAHYTGKLGDGTEFDSSLPRNQPFVFSLGTGERIKGWDQGLLGMCEGEGRKLVIPSELGYGERGWPPKIPGGATLVFEVELLEIER
modifications: Description of sequence: Construct Name: FKBP-219; Mutation(s): Q72R Q84E A117W V85R DRD M54A E61G K101G K135E
As to B13, the “FC (fold change)” value is recorded as 5.4.

B14: FKBP-217 (protein)
chain: HCPIKSRKGDVLHAHYTGKLYDGTEFDSSLPRNQPFVFSLGTGERIKGWDQGLLGMCEGEWRKLVIPSELGYGERGWPPKIPGGATLVFEVELLYIER
modifications: Description of sequence: Construct Name: FKBP-217; Mutation(s): Q72R Q84E A117W V85R DRD M54A E61Y K101W K135Y
As for B14, the “FC (fold change)” value is reported as 36.8. Under setting [1], the EC90 came out at 16100 nM. Moreover, the EC90 under setting [2] came to 17500 nM.

B15: FKBP-224 (protein)
chain: HCRIKSRKGDVLHMHYTGKLEDGTEFDSSLPRNQPFVFSLGTGEVIKGWDQGLLGMCEGEKRKLVIPSELGYGERGWPPKIPGGATLVFEVELLKIER
modifications: Description of sequence: Construct Name: FKBP-224; Mutation(s): Q72R Q84E A117W DRD P43R
Take B15: the “FC (fold change)” value is 5.2. In addition, the EC90 under setting [1] was found to be 78.6 nM. Moreover, the concentration for an effect of 90% (EC90) under setting [2] worked out at 88.7 nM.

B16: FKBP-214: FKBP13 DRD-AcGFP construct of Table 10 (protein)
chain: HCRIKSRKGDVLHAHYTGKLEDGTEFDSSLPRNQPFVFSLGTGGRIKGWDQGLLGMCEGEKRKLVIPSELGYGERGWPPKIPGGATLVFEVELLKIER
modifications: Description of sequence: Construct Name: FKBP-214; Mutation(s): Q72R Q84G A117W V85R DRD P43R M54A
As to B16, the “FC (fold change)” value is reported as 51.0. Besides, the EC90 under setting [1] was found to be 388 nM. Under setting [2], the EC90 stood at 390 nM.

B17: FKBP-212 (protein)
chain: HCPIKSRKGDVLLAHYTGKLEDGTEFDSSLPRNQPFVFSLGTGERIKGWDQGLLGMCEGEKRKLVIPSELGYGERGWPPKIPGGATLVFEVELLKIER
modifications: Description of sequence: Construct Name: FKBP-212; Mutation(s): Q72R Q84E A117W V85R DRD M54A H53L
Turning to B17, the “FC (fold change)” value is given as 40.2. In addition, under setting [1], the EC90 is 299 nM. The EC90 under setting [2] stood at 317 nM.

B18: FKBP-210 (protein)
chain: HCPIKSRKGDVLHAHYTGKLEDGTEFDSSLPRNQPFVFSLGTGERIKGWDQGLLGMCLGEKRKLVIPSELGYGERGWPPKIPGGATLVFEVELLKIER
modifications: Description of sequence: Construct Name: FKBP-210; Mutation(s): Q72R Q84E A117W V85R DRD M54A E98L
Regarding B18, the “FC (fold change)” value amounted to 32.8. Also, the EC90 under setting [1] was 191 nM. The EC90 under setting [2] stood at 208 nM.

B19: FKBP-220: FKBP13 DRD-AcGFP construct of Table 10 (protein)
chain: HCPIKSRKGDVLHMHYTGKLEDGGEFDSSLPRNQPFVFSLGTGERIKGWDQGLLGMCEGEKRKLVIPSELGYGERGWPPKIPGGATLVFEVELLKIER
modifications: Description of sequence: Construct Name: FKBP-220; Mutation(s): Q72R Q84E A117W V85R DRD T25G
As for B19, the “FC (fold change)” value is reported as 34.2. Besides, the EC90 under setting [1] was 156 nM. Moreover, the EC90 under setting [2] turned out to be 165 nM.
